Assay results reported in paper PMC9089897 (PLoS Pathogens, 2022).

B1: REGN10933 (antibody, V domains shown)
VH: QVQLVESGGGLVKPGGSLRLSCAASGFTFSDYYMSWIRQAPGKGLEWVSYITYSGSTIYYADSVKGRFTISRDNAKSSLYLQMNSLRAEDTAVYYCARDRGTTMVPFDYWGQGTLVTVSS
VL: DIQMTQSPSSLSASVGDRVTITCQASQDITNYLNWYQQKPGKAPKLLIYAASNLETGVPSRFSGSGSGTDFTFTISGLQPEDIATYYCQQYDNLPLTFGGGTKVEIK
notes: also called Casirivimab
B2: REGN10987 (antibody, V domains shown)
VH: QVQLVESGGGVVQPGRSLRLSCAASGFTFSNYAMYWVRQAPGKGLEWVAVISYDGSNKYYADSVKGRFTISRDNSKNTLYLQMNSLRTEDTAVYYCASGSDYGDYLLVYWGQGTLVTVSS
VL: QSALTQPASVSGSPGQSITISCTGTSSDVGGYNYVSWYQQHPGKAPKLMIYDVSKRPSGVSNRFSGSKSGNTASLTISGLQSEDEADYYCNSLTSISTWVFGGGTKLTVL
notes: also called Imdevimab

Biological target: biotinylated avi-tagged SARS-CoV-2 (Wuhan) receptor binding domain (RBD) (SARS-CoV-2 (Wuhan strain), UniProt P0DTC2, biotin (avi-tagged RBD labeled with biotin, BirA500))
Test: BLI
Conditions: both partners purified

Binder | binding result
B1 | binds
B2 | binds
